Measured values taken from patent publication US20190085314A1 (SAINT LOUIS UNIVERSITY, published 2019).
Each block holds one molecule with its values, some of them ahead of it.

How the values were obtained:
[1] = molecular target: AtUBC8 (Arabidopsis thaliana ubiquitin conjugating enzyme E2 8), 6xHIS-tagged (Arabidopsis thaliana) (UniProt P35131); assay: interface area calculated for residues 74-82 of AtMUB3 within the co-crystal structure
[2] = molecular target: AtUBC8 (Arabidopsis thaliana ubiquitin conjugating enzyme E2 8), 6xHIS-tagged (Arabidopsis thaliana) (UniProt P35131); assay: Delta G calculated for residues 74-82 of AtMUB3 within the co-crystal structure; unit not given
[3] = molecular target: T1, biotinylated E2 (Ube2D3), from the E1/E2 Lite kit (LifeSensors) (UniProt P61077 1-147, limits assumed, biotinylated (site not stated); labelled with streptavidin-terbium in the assay); assay: HTRF-FRET E2 activation assay; initial velocity against HsMUB concentration, one-site binding fit; IC50 equal to Ki under limiting E2
T1 construct: Bought kit reagent; also called biotinylated Ube2D3

[4] = molecular target: T2, AtUBC8 (Arabidopsis thaliana ubiquitin conjugating enzyme E2 8), 6xHIS-tagged (Arabidopsis thaliana, UniProt P35131 1-148); assay: Isothermal titration calorimetry (MicroCal iTC200), 110 uM AtMUB3 titrated into 8 uM AtUBC8, OneSites model; 25 mM HEPES pH 7.5, 200 mM NaCl, 1 mM TCEP
T2 construct: The crystal model holds residues 1-147/1-148; also called AtUBC08; not shown: 6xHIS tag
Procedure: FIG. 13. […] Proteins were purified as described for crystallization and dialyzed extensively against a buffer containing 25 mM HEPES, pH 7.5, 200 mM NaCl, 1 mM TCEP. Data was processed with MicroCal Origin 7 software, and normalized against the dialysis buffer's heat of dilution.

T2 sequence (P35131 whole entry, the tested form may be a part): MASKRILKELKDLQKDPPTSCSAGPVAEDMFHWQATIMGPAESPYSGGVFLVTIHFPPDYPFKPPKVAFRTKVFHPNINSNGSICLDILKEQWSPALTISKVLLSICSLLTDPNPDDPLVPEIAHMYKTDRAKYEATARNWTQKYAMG
AtUBC8 (Arabidopsis thaliana ubiquitin conjugating enzyme E2 8), 6xHIS-tagged (Arabidopsis thaliana), sequence (P35131 whole entry, the tested form may be a part): as above
T1 sequence (P61077 whole entry): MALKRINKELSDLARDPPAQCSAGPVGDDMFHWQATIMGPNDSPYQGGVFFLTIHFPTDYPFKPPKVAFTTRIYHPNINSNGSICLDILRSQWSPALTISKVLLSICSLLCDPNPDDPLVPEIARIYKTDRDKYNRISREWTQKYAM

Surface area (Å^2) [1]: 288 Å^2
Delta G [2]: -5
Molecule: AtMUB3 (74-82) (from UniProt Q9SW27 74-82)

Ki [3]: 220 nM
B1: HsMUB (Homo sapiens Membrane-anchored Ubiquitin-fold protein), C-terminal 6xHIS (other)
chain: MSSNVPADMINLRLILVSGKTKEFLFSPNDSASDIAKHVYDNWPMDWEEEQVSSPNILRLIYQGRFLHGNVTLGALKLPFGKTTVMHLVARETLPEPNSQGQRNREKTGESNCCVIL
notes: The coding region was cloned with the stop codon removed; also called Ubl3; human MUB; not shown: C-terminal 6xHIS tag from pET28b

Ka [4]: 3.53e+06 M⁻¹
Kd [4]: 283 nM
ΔH [4]: -8.84 kcal/mol
ΔS [4]: 0.331 cal/mol/deg
B2: AtMUB3 (Arabidopsis thaliana Membrane-anchored Ubiquitin-fold protein 3), 6xHIS-tagged (other, UniProt Q9SW27 1-118, looked up)
chain: MPEEESIDIKFRLYDGSDIGPFRYSAASTVDFLKQRVVSDWPKGKTVVPKGINEVKLISSGKILENNKTVGQCKTPFGDIAGGVIVMHVVVQPSLAKSKTEKKVDKAPKAVICTCTIL
notes: Expressed in E. coli, so not prenylated; An N-terminal 6xHIS AtMUB3 is also described; also called AtMUB3-His; not shown: C-terminal 6xHIS tag from pET28b
